Measured values published in the supplement of paper PMC7877785.
± gives the uncertainty stated by the source.

Test: self-splicing fitness, log relative to wild type (ln ratio); higher = more splicing; Tetrahymena group I intron in knt gene, E. coli kanamycin selection, DiMSum; sequences stand for … in CUCUCU…GGAGGGAAAAGUUAUCAGGCAUGCACCUGGUAGCUAGUCUUUAAACCAAUAGAUUGCAUCGGUUUAAAAGGCAAGACCGUCAAAUUGCGGGAAAGGGGUCAACAGCCGUUCAGUACCAAGUCUCAGGGGAAACUUUGAGAUGGCCUUGCAAAGGGUAUGGUAAUAAGCUGACGGACAUGGUCCUAACCACGCAGCCAAGUCCUAAGUCAACAGAUCUUCUGUUGAUAUGGAUGCAGUUCACAGACUAAAUGUCGGUCGGGGAAGAUGUAUUCUUCUCAUAAGAUAUAGUCGGACCUCUCCUUAAUGGGAGCUAGCGGAUGAAGUGAUGCAACACUGGAGCCGCUGGGAACUAAUUUGUAUGCGAAAGUAUAUUGAUUAGUUUUGGAGUACUCGUGGUCG
Method in brief: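 A randomised library covering all eight P1ex-region intron nucleotides was built with the intron in the knt kanamycin-resistance gene on pET-22b(+) and held in E. coli BL21(DE3). Cells were grown overnight at 37°C or 30°C on LB agar, with or without 25 μg/mL kanamycin, plus 100 μg/mL carbenicillin, 50 μM IPTG and 0.2% rhamnose, and pooled colonies were amplicon-sequenced on an Illumina HiSeq 2500. DiMSum fitness is the error-weighted combination of wild-type-normalised replicate fold changes, kanamycin versus none.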

Row | Sequence | self-splicing fitness (ln) (30 °C) | self-splicing fitness (ln) (37 °C)
1 | CAUCAGCAAUAUUACGUCGU | -1.93 ± 0.097 | -1.19 ± 0.11
2 | CAUCAGCAAUAUUACGUGAA | -0.729 ± 0.055 | -0.211 ± 0.09
3 | CAUCAGCAAUAUUACGUUUC | -2.76 ± 0.17 | -1.82 ± 0.16
4 | CAUGAGCAAUAUUACGAACU | -3.53 ± 0.19 | -2.95 ± 0.26
5 | CAUGAGCAAUAUUACGAAUG | -3.67 ± 0.2 | -2.33 ± 0.16
6 | CAUGAGCAAUAUUACGACAC |  | -1.19 ± 0.31
7 | CAUGAGCAAUAUUACGAGCC | -3.05 ± 0.41 | 
8 | CAUGAGCAAUAUUACGAUGC | -3.19 ± 0.17 | -1.89 ± 0.2
9 | CAUGAGCAAUAUUACGAUUG | -4.17 ± 0.26 | -3.15 ± 0.24
10 | CAUGAGCAAUAUUACGCACA | -2.8 ± 0.2 | -2.44 ± 0.23
11 | CAUGAGCAAUAUUACGCAGA | -4.53 ± 0.32 | -1.69 ± 0.15
12 | CAUGAGCAAUAUUACGCGCA | -2.89 ± 0.19 | -1.31 ± 0.16
13 | CAUGAGCAAUAUUACGCGGG | -1.45 ± 0.14 | -2.46 ± 0.28
14 | CAUGAGCAAUAUUACGCGGU | -4.59 ± 0.33 | -2.33 ± 0.21
15 | CAUGAGCAAUAUUACGGAAA | -3.26 ± 0.29 | -2.17 ± 0.24
16 | CAUGAGCAAUAUUACGGCUU | -2.99 ± 0.17 | -2.92 ± 0.29
17 | CAUGAGCAAUAUUACGGGCA | -2.43 ± 0.18 | -2.21 ± 0.28
18 | CAUGAGCAAUAUUACGGGGG | -2.64 ± 0.23 | -2.64 ± 0.3
19 | CAUGAGCAAUAUUACGGUCG | -0.34 ± 0.091 | 0.0674 ± 0.1
20 | CAUGAGCAAUAUUACGGUUA | -2.75 ± 0.23 | -3.26 ± 0.32
21 | CAUGAGCAAUAUUACGUGUG | -3.67 ± 0.17 | -3.09 ± 0.16
22 | CAUUAGCAAUAUUACGAACA | -3.7 ± 0.42 | -0.317 ± 0.2
23 | CAUUAGCAAUAUUACGAGUA | -1.59 ± 0.23 | -1.84 ± 0.27
24 | CAUUAGCAAUAUUACGAGUG | -3.06 ± 0.15 | -2.83 ± 0.2
25 | CAUUAGCAAUAUUACGAUCA | -2.81 ± 0.33 | -1.46 ± 0.23

Row | Sequence | self-splicing fitness (ln) (30 °C) | self-splicing fitness (ln) (37 °C)
26 | CAUUAGCAAUAUUACGAUCU | -2.48 ± 0.2 | -3.22 ± 0.47
27 | CAUUAGCAAUAUUACGCAAU |  | -1.54 ± 0.43
28 | CAUUAGCAAUAUUACGCAGG | -2.18 ± 0.12 | -1.53 ± 0.13
29 | CAUUAGCAAUAUUACGCAUC | -2.71 ± 0.21 | -1.6 ± 0.27
30 | CAUUAGCAAUAUUACGCCUG | -1.4 ± 0.12 | -0.136 ± 0.12
31 | CAUUAGCAAUAUUACGGCUU | -4.46 ± 0.39 | -1.98 ± 0.33
32 | CAUUAGCAAUAUUACGUAGU | -3.66 ± 0.17 | -1.84 ± 0.17
33 | CAUUAGCAAUAUUACGUCAA | -2.38 ± 0.23 | -2.96 ± 0.4
34 | CAUUAGCAAUAUUACGUCCG | -0.0564 ± 0.12 | -0.142 ± 0.15
35 | CAUUAGCAAUAUUACGUGAG | -1.55 ± 0.14 | 0.776 ± 0.12
36 | CAUUAGCAAUAUUACGUGCA | -2.31 ± 0.28 | 
37 | CAUUAGCAAUAUUACGUGCG | -0.965 ± 0.074 | -0.237 ± 0.082
38 | CAUUAGCAAUAUUACGUGGA | -3.35 ± 0.19 | -2.13 ± 0.13
39 | CAUUAGCAAUAUUACGUUCA | -2.33 ± 0.2 | -2.35 ± 0.24
40 | CCAAAGCAAUAUUACGAACA | -3.48 ± 0.22 | -3.23 ± 0.28
41 | CCAAAGCAAUAUUACGAUCA | -2.94 ± 0.13 | -3.1 ± 0.31
42 | CCAAAGCAAUAUUACGAUUA | -3.39 ± 0.2 | -3.27 ± 0.25
43 | CCAAAGCAAUAUUACGCAGA | -3.75 ± 0.19 | -2.65 ± 0.18
44 | CCAAAGCAAUAUUACGCAUA | -3.42 ± 0.15 | -2.38 ± 0.17
45 | CCAAAGCAAUAUUACGCGAC | -4.37 ± 0.27 | -2.87 ± 0.21
46 | CCAAAGCAAUAUUACGCGCG | -1.59 ± 0.075 | -0.994 ± 0.1
47 | CCAAAGCAAUAUUACGCGGC | -3.34 ± 0.18 | -3.15 ± 0.32
48 | CCAAAGCAAUAUUACGCGUC | -3.17 ± 0.21 | -2.98 ± 0.34
49 | CCAAAGCAAUAUUACGGAGG | -3.79 ± 0.25 | -2.04 ± 0.21
